Results on four molecules are retold here after US7662769B2, “Glycosyltransferase GnT-V having neovascularization action” (Suntory Holdings Limited, priority 2002, dated 2010).

*1 amine or outer side, *2 acyl side, *3 side chain or, on linkers, in order; H or OH if unused. Where a SMILES comes first, the peptide text is derived from it. [ ]: non-standard residue; d: D form. The star is where a group is joined. X1 = CC(N[*:1])C(=O)C(F)(F)C(=O)[*:2]; Boc = CC(C)(C)OC(=O)*

The test system of data set [1] is PaCa-2/GnT-V cell. In words: GnT-V activity in culture solution (production of secretory type GnT-V), PaCa-2/GnT-V cell. In kind it is cell-based. To be noted: 100 μM in DMSO, FIG. 10A.
In data set [2] the test system is KB/GnT-V cell. In words: GnT-V activity in culture solution (production of secretory type GnT-V), KB/GnT-V cell. The following applies: 100 μM in DMSO, FIG. 10B. In kind it is cell-based.
Data set [3] concerns HUVEC. In words: HUVEC differentiation and growth, incorporation of [3H]-thymidine (DNA synthesis). In kind it is cell-based, human. To be noted: [3H]-thymidine incorporation; FIG. 2, 3B, 6. As for the experimental part: For in vitro evaluation of induction of neovascularization by a GnT-V transformant, the amount of synthesis of DNA of human umbilical vein […] cells (HUVEC) after stimulation with culture solution of a GnT-V transformant was measured by a method of Soker et al.(Soker, S., et al., J. Biol. Chem. 272, 31582-31588 (1997)). HUVEC was inoculated on a 96-well plate coated with type I collagen at a rate of 2×10^3 cells per well, and 24 hours later, the medium was substituted with an MCDB131 medium (not containing FBS and FGF-2) containing 0.1% […] and a starved condition was maintained for 24 hours. The medium was substituted with culture solution of the WiDr cell transformed with the glycosyltransferase gene described in Example 1, and HUVEC was stimulated for 24 hours. HUVEC was maintained for 8 hours with [^3H]-thymidine (1 μCi/ml), and incorporation of [^3H]-thymidine into HUVEC was analyzed by MicroBeta-Counter (manufactured by Wallac) to measure the amount of synthesis of DNA. The result was shown as the mean value of assay results of 6 wells, and the standard deviation was measured. All experiments were repeated at least three times, and the same results were obtained. As apparent from FIG. 1, DNA synthesis of HUVEC stimulated with the culture solution of WiDr cells transformed with a GnT-V gene increased, however, the same effect was not observed in culture solution of WiDr cells transformed with other glycosyltransferase genes.
Purification of a neovascularization factor present in culture solution of WiDr cells transformed with a GnT-V gene was conducted using various column chromatographies. The neovascularization activity of each fraction was evaluated by differentiation and growth of HUVEC described in Example 3. In heparin affinity chromatography, a fraction of high growth activity of HUVEC was eluted with 0.3 M NaCl. Since known growth factors such as FGF-1, FGF-2, VEGF, placenta-induced growth factor (PIGF) and hepatocyte growth factor (HGF) and the like are eluted with 0.8 to 1.5 M NaCl (Hauser, S. & Weich H. A., Growth Factor 9, 259-268 (1993). Gohda, E., et al., J. Clin. Invest. 81, 414-419 (1998). Marez, A., et al., Biochimie 69, 125-129 (1987). Risau, W., et al., The EMBO J. 7, 959-962 (1988). Rothenthal, R. A., et al., Growth Factor 4, 53-59 (1990)), the above-mentioned nature is utterly different from the natures of these known growth factors. […] A fraction eluted with 0.3 M NaCl in heparin affinity chromatography was subjected to Western blot analysis using an anti-GnT-V antibody to find that the reaction of the anti-GnT-V antibody and the differentiation and growth activity of HUVEC are consistent each other, and the main protein having a differentiation and growth activity of HUVEC present in the fraction is GnT-V itself.
On the technique in general: Uptake of a labelled nucleoside into DNA is a usual measure of proliferation.

Data set [4] is described as follows: glycosyltransferase activity of GnT-V deficient variants. In kind it is biochemical. The following applies: recombinant variants from Sf21 cells. An excerpt:
For clarifying which domain of GnT-V is involved in HUVEC growth accelerating activity, a GnT-V lacking variant shown in FIG. 3A was produced. The method of production of a GnT-VΔ188 plasmid is disclosed in a literature of Sasai et al (Sasai, K., et al., Glycobiology (in press)). A transfer plasmid having a GnT-VΔ233 gene was produced by binding a DNA fragment of 1521 base pairs encoding polyhistidine tag at the C-terminal and an amino acid sequence of from Glu234 to Leu741 of human GnT-V, obtained by cutting a GnT-VΔ188 plasmid with EcoRI and EagI, to an EcoRI-EagI site of a transfer vector pAcGP67-A (manufactured by PharMingen). A transfer plasmid having a GnT-VΔ436 gene was produced by binding a DNA fragment of 912 base pairs encoding polyhistidine tag at the C terminal and an amino acid sequence of from Ile437 to Leu741, of human GnT-V, obtained by cutting a GnT-VΔ188 plasmid with EcoRV and EagI, to an EcoRV-EagI site of a transfer vector pAcGP67-A. For production of a recombinant Baculovirus, an insect cell Sf21 was transformed with the transfer plasmid obtained above according to a method known in a literature (Ikeda, Y., et al., J. Biochem. 128, 609-619 (2000)). The recombinant glycosyltransferase derived from the transformed Sf21 cell was purified by Ni^2+-chelating affinity chromatography according to a method disclosed in a literature of Sasaki et al (Sasai, K., et al., Glycobiology (in press)).

Data set [5] concerns HSPG on HUVEC. In words: release of FGF-2 from HSPG on HUVEC (FGF-2 ELISA of supernatant). Format: cell-based, human. The following applies: 4° C., 2 hours; FIG. 5. An excerpt: A basic peptide (KRKRKK peptide) composed of Lys-Arg-Lys-Arg-Lys-Lys (SEQ ID NO: 11) which is an amino acid sequence of from 264 to 269 and a non-basic control peptide (FSGGPL peptide) composed of Phe-Ser-Gly-Gly-Pro-Leu (SEQ ID NO: 12) which is an amino acid sequence of from 291 to 296, of GnT-V, were synthesized, and an influence of these peptides on growth of HUVEC was examined. The peptide was synthesized by a peptide synthesizer A432 (manufactured by Applied Biosystems), and purified by reverse phase HPLC, then, its molecular weight and degree of purification were confirmed by MALDI TOF-MS (Voyager-DE (registered trademark) RP; manufactured by PerSeptive Biosystems). The concentration of FGF-2 was measured by a known method (Barillari, G., et al., American J. Patho. 152, 1161-1166 (1998)). […] After centrifugation at 4° C. and 3000 rpm for 5 minutes, the supernatant was collected, the concentration of FGF-2 in the supernatant was measured in an FGF-2 ELISA system (manufactured by R&D Systems) according to a manual of this system.
As described above, various deficient variants of GnT-V and synthetic peptides were added at 4° C. to culture solution of HUVEC, and the amount of FGF-2 released from HSPG on HUVEC was measured.
A general note: ELISA stands for enzyme-linked immunosorbent assay.

Data set [6] relates to HUVEC. Kind of data set: migration assay using HUVEC. Format: cell-based, human. An excerpt:
(§1) Induction of neovascularization by GnT-V was confirmed also by other in vitro neovascularization assays such as a capillary-like tube formation assay (Ashoton, A. W., et al., J. Biol. Chem. 274, 35562-35570 (1999)) and a migration assay (Zeng, H., et al., J. Biol. Chem. 276, 3271-3279 (2001)) using HUVEC.

Data set [7] has as its system HUVEC. In words: capillary-like tube formation assay using HUVEC. In kind it is cell-based, human.
Text: as §1

Data set [8] has as its system chicken microvessels. In words: CAM (chorioallantoic membrane) assay of neovascularization. In kind it is in vivo. To be noted: ex-vivo, chicken embryo CAM. As for the experimental part:
Acceleration of neovascularization by a GnT-V transformant was confirmed by a CAM (chorioallantoic membrane) assay using an embryo of a chicken fertilized egg. The CAM assay was conducted by a method of Yen et al. (Yen, L., et al., Oncogene 19, 3460-3469 (2000)) and a method of Bernardini (Bernardini, G., et al., Blood 96, 4039-4045 (2000)), both being slightly modified. CAM 8 days after fertilization of white Leghorn was used, and 1×10^5 cells thereof were inoculated on a collagen sponge and maintained for 4 hours. A 5 mm silicon ring was placed on CAM on the collagen sponge and maintained for 48 hours.
as §1

Consider `CCC(C)C(NC(=O)C(NC(=O)OC(C)(C)C)C(C)C)C(=O)NC(C)C(=O)C(F)(F)C(=O)NC(C(=O)NC(C(=O)OC)C(C)CC)C(C)C` (centres unmarked) [DFK167] (Boc-VI[X1]VI-OMe; configuration not given here), for which the “GnT-V activity in culture solution” value in data set [1] and in data set [2] was “could not be detected” throughout.

B1: GnT-VΔ233: GnT-V lacking variant, amino acid sequence from Glu234 to Leu741 of human GnT-V with C-terminal polyhistidine tag (protein, UniProt Q09328 234-741, looked up, fragment)
chain: EFRWMRLRIRRMADAWIQAIKSLAEKQNLEKRKRKKVLVHLGLLTKESGFKIAETAFSGGPLGELVQWSDLITSLYLLGHDIRISASLAELKEIMKKVVGNRSGCPTVGDRIVELIYIDIVGLAQFKKTLGPSWVHYQCMLRVLDSFGTEPEFNHANYAQSKGHKTPWGKWNLNPQQFYTMFPHTPDNSFLGFVVEQHLNSSDIHHINEIKRQNQSLVYGKVDSFWKNKKIYLDIIHTYMEVHATVYGSSTKNIPSYVKNHGILSGRDLQFLLRETKLFVGLGFPYEGPAPLEAIANGCAFLNPKFNPPKSSKNTDFFIGKPTLRELTSQHPYAEVFIGRPHVWTVDLNNQEEVEDAVKAILNQKIEPYMPYEFTCEGMLQRINAFIEKQDFCHGQVMWPPLSALQVKLAEPGQSCKQVCQESQLICEPSFFQHLNKDKDMLKYKVTCQSSELAKDILVPSFDPKNKHCVFQGDLLLFSCAGAHPRHQRVCPCRDFIKGQVALCKDCL
modifications: C-terminal His tag
With B1, the “differentiation and growth of HUVEC (HUVEC growth accelerating activity)” value in data set [3] is “had an HUVEC growth and differentiation accentuation action”. Besides, in data set [4], the glycosyltransferase activity entry is “had no glycosyltransferase activity”. For the same molecule, the “release of FGF-2 from HSPG on HUVEC” value in data set [5] was “released FGF-2”.

B2: GnT-V: secretory type glycosyltransferase N-acetylglucosaminyltransferase V (protein, UniProt Q09328 1-741, looked up)
Alpha-1,6-mannosylglycoprotein …: MALFTPWKLSSQKLGFFLVTFGFIWGMMLLHFTIQQRTQPESSSMLREQILDLSKRYIKALAEENRNVVDGPYAGVMTAYDLKKTLAVLLDNILQRIGKLESKVDNLVVNGTGTNSTNSTTAVPSLVALEKINVADIINGAQEKCVLPPMDGYPHCEGKIKWMKDMWRSDPCYADYGVDGSTCSFFIYLSEVENWCPHLPWRAKNPYEEADHNSLAEIRTDFNILYSMMKKHEEFRWMRLRIRRMADAWIQAIKSLAEKQNLEKRKRKKVLVHLGLLTKESGFKIAETAFSGGPLGELVQWSDLITSLYLLGHDIRISASLAELKEIMKKVVGNRSGCPTVGDRIVELIYIDIVGLAQFKKTLGPSWVHYQCMLRVLDSFGTEPEFNHANYAQSKGHKTPWGKWNLNPQQFYTMFPHTPDNSFLGFVVEQHLNSSDIHHINEIKRQNQSLVYGKVDSFWKNKKIYLDIIHTYMEVHATVYGSSTKNIPSYVKNHGILSGRDLQFLLRETKLFVGLGFPYEGPAPLEAIANGCAFLNPKFNPPKSSKNTDFFIGKPTLRELTSQHPYAEVFIGRPHVWTVDLNNQEEVEDAVKAILNQKIEPYMPYEFTCEGMLQRINAFIEKQDFCHGQVMWPPLSALQVKLAEPGQSCKQVCQESQLICEPSFFQHLNKDKDMLKYKVTCQSSELAKDILVPSFDPKNKHCVFQGDLLLFSCAGAHPRHQRVCPCRDFIKGQVALCKDCL
With B2, the “induction of neovascularization, migration” value in data set [6] is given as “confirmed”. The “induction of neovascularization, capillary-like tube formation” value in data set [7] was “confirmed”.

B3: GnT-VΔ436: GnT-V lacking variant, amino acid sequence from Ile437 to Leu741 of human GnT-V with C-terminal polyhistidine tag (protein, UniProt Q09328 437-741, looked up, fragment)
chain: IHHINEIKRQNQSLVYGKVDSFWKNKKIYLDIIHTYMEVHATVYGSSTKNIPSYVKNHGILSGRDLQFLLRETKLFVGLGFPYEGPAPLEAIANGCAFLNPKFNPPKSSKNTDFFIGKPTLRELTSQHPYAEVFIGRPHVWTVDLNNQEEVEDAVKAILNQKIEPYMPYEFTCEGMLQRINAFIEKQDFCHGQVMWPPLSALQVKLAEPGQSCKQVCQESQLICEPSFFQHLNKDKDMLKYKVTCQSSELAKDILVPSFDPKNKHCVFQGDLLLFSCAGAHPRHQRVCPCRDFIKGQVALCKDCL
modifications: C-terminal His tag
As to B3, the “differentiation and growth of HUVEC (HUVEC growth accelerating activity)” value in data set [3] is “did not have an HUVEC growth and differentiation accentuation action”. Also, the “induction of neovascularization in CAM assay” value in data set [8] is given as “did not have a neovascularization activity”. The glycosyltransferase activity entry in data set [4] was “had no glycosyltransferase activity”. In addition, the “release of FGF-2 from HSPG on HUVEC” value in data set [5] is given as “did not affect release of FGF-2”.
